# Ends that are not written are not given here.
# T1: VPAC1 receptor
# T1 sequence (P32241 whole entry, species assumed, looked up): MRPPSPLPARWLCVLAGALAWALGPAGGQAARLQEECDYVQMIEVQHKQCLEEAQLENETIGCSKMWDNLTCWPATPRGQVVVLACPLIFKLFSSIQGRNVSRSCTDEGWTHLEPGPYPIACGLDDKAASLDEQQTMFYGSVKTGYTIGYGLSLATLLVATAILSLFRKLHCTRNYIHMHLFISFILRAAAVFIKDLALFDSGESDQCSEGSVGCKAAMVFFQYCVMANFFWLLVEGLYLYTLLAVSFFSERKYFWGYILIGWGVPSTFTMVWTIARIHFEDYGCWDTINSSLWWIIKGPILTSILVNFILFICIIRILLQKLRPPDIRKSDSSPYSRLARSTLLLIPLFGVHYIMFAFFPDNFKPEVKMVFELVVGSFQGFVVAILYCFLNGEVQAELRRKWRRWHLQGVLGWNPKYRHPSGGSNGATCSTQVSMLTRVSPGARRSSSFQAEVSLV
# Biological target: T1, VPAC1 receptor
# Test: cell-based or functional assay
row,"EC50 (nM), cAMP assay, VPAC1 agonist activity [nM]",Binder
1,232,HSDAVFTDQYTRLRKQVAAKKYLQSIKQKRY (ends and bridges not checked) [P5]
2,> 1000,HSDAVFTDQYTRLRKQVAAKKYLQSIKQKRYC (branched 43 kD PEG attached to the C-terminal cysteine via maleimide (thioether) linkage) [P412 (P12+43 kD PEG)]
3,> 1000,HSDAVFTDQYTRLRKQVAAKKYLQSIKQKRYC (linear 22 kD PEG attached to the C-terminal cysteine via maleimide (thioether) linkage) [P212 (P12+22 kD PEG)]
4,> 1000,HSDAVFTDQYTRLRKQVAAKKYLQSIKQKRYC (ends and bridges not checked) [P12]

# — US20080261863A1 (Bayer, published 2008)
